{"source": "patent US9682130B2", "about": "(priority 2015, dated 2017)", "molecules": {"B1": {"name": "Ranpirnase (protein, UniProt P22069 1-104, looked up)", "Protein P-30": "QDWLTFQKKHITNTRDVDCDNIMSTNLFHCKDKNTFIYSRPEPVKAICKGIIASKNVLTTSEFYLSDCNVTSRPCKYKLKKSTNKFCVTCENQAPVHFVGVGSC", "notes": "amphibian ribonuclease originally isolated from oocytes and/or early embryos of Rana pipiens; pancreatic ribonuclease (RNase A) superfamily, about 12 kD"}}, "key": {"[1]": {"system": "Human Adenovirus 5 (AD5 strain NYS #98-1836)", "test": "microbe, parasite or virus in culture", "format": "cell-based", "conditions": "Adenovirus 5, MA-104 cells", "protocol": "To assess in vitro cytotoxicity, both a cytopathic effects of a virus (CPE) regression assay and a neutral red lysosomal uptake cell viability assay was performed essentially as described in, e.g., Repetto, et al., Neutral Red Uptake Assay for the Estimation of Cell Viability/Cytotoxicity, Nat. Protoc. 3: 1125-1131 (2008), the content of which is hereby incorporated by reference in its entirety. Ninety-six-well plates were seeded with MA-104 cells at 1×10^5 cells/mL and incubated overnight at 37° C. with 5% CO2. […] Each dilution was added to 5 wells of a 96-well plate with 80% to 100% confluent cells, and three wells of each dilution were then infected with one of the two test viruses. Two wells remained uninfected as controls for toxicity. Six wells per plate were set aside as uninfected, untreated cell controls, and six wells per plate were infected with no treatment as virus controls. […] Assay plates were incubated at 37° C. with 5% CO2. […] After CPE reduction assay was completed, a neutral red lysosomal uptake assay was conducted by filling each well with 0.011% (m/v) neutral red, a vital stain. The plates then were incubated for about 2 hours at 37° C. in the dark. The unincorporated neutral red solution was removed from the wells and the incorporated dye was then eluted by adding Sorensen's citrate-buffered ethanol. The plates were then read on a spectrophotometer at 540 nm to quantify the neutral red taken up by the healthy cells. The optical density of test wells was converted to percent of cell control and normalized to the virus controls.\n(§1) The concentration of test compound required to inhibit CPE by 50% or reduce red uptake into cells by 50% (EC50) was calculated by regression analysis. The toxicity of the compound without virus present was similarly calculated using the uninfected wells treated with test compounds compared with untreated cell controls. The concentration of compound that would cause 50% cytotoxic effects in the absence of virus (CC50) was estimated by linear regression analysis. The selectivity index (SI) is the CC50 divided by EC50."}, "[2]": {"system": "Human Adenovirus 8 (Ad8 strain 13306)", "test": "Virus yield reduction assay, Adenovirus 8", "format": "cell-based", "protocol": "as §1\nThe virus yield reduction assay was used to determine actual virus amounts in the presence and absence of the test compound; this is the confirmatory assay for antiviral activity. […] Replicate wells of each compound concentration or control were pooled and frozen at −80° C. Samples were thawed and diluted by 10-fold serial dilutions. A 100 μL aliquot of each dilution was then plated onto 4 replicate wells of 96-well plates seeded with the applicable cells for each virus strain. Plates were incubated as noted above until viral CPE reached its endpoint, then each well was scored microscopically for the presence of viral CPE. The virus titer was determined based on the endpoint using the Reed-Muench method. […]"}, "[3]": {"system": "A549 cells", "test": "In vitro cytotoxicity, ALAMARBLUE fluorometric stain", "format": "cell-based", "conditions": "2 days", "protocol": "Ophthalmol. Vis. Sci. 50: 5295-5299 (2009), which is hereby incorporated by reference in its entirety.\nTo assess in vitro cytotoxicity, 96-well plates were seeded with A549 cells at 1×10^5 cells/mL and incubated overnight at 37° C. with 5% CO2. […] After removal of the tissue culture media, 100 μL of each dilution was added to 3 wells of a 96-well plate with 80% to 100% confluent cells. […] Each test and control treatment was incubated on the A549 monolayers for 2 days at 37° C. with 5% CO2. A 100 μL aliquot of the fluorometric stain was then added to each well, and the cells incubated for 1 hour at 37° C. with 5% CO2. The fluorometric stain (ALAMARBLUE®, Invitrogen, Carlsbad, Calif.) acts as a redox indicator that is reduced to a fluorescent form by metabolically active living cells. Fluorescence was then be read with a plate reader (Biotek Synergy 2; Biotek), with a 500/27-nm excitation filter and a 620/40-nm emission filter, at a sensitivity of 35."}, "[4]": {"system": "NFκB", "conditions": "small in vitro study; cited from earlier work"}}, "note": "Several values for one entry are separate records, joined by “and”; a condition that tells them apart may be missing. Identical values can stand only once."}
{"molecule": "B1", "values": [{"measurement": "Neutral Red Assay EC50", "setting": "[1]", "result": "<100", "unit": "µg/mL"}, {"measurement": "Yield Reduction Assay EC50", "setting": "[2]", "result": 25.1, "unit": "µg/mL"}, {"measurement": "% cytotoxicity, Mean", "setting": "[3]; 0.001 μM, second experiment", "result": 3.2, "unit": "%"}, {"measurement": "% cytotoxicity", "setting": "[3]; 0.001 μM, second experiment, single assays 1-3, 0.001 µM", "result": "5.7% and 2.3% and 1.6%"}, {"measurement": "% cytotoxicity, Mean", "setting": "[3]; 0.01 μM, second experiment", "result": 7.4, "unit": "%"}, {"measurement": "% cytotoxicity", "setting": "[3]; 0.01 μM, second experiment, single assays 1-3, 0.01 µM", "result": "8.6% and 11.7% and 7.9%"}, {"measurement": "% cytotoxicity, Mean", "setting": "[3]; 0.1 μM, second experiment", "result": 5.8, "unit": "%"}, {"measurement": "% cytotoxicity", "setting": "[3]; 0.1 μM, second experiment, single assays 1-3, 0.1 µM", "result": "6.0% and 5.3% and 6.1%"}, {"measurement": "% cytotoxicity", "setting": "[3]; 1.0 μM, first experiment, single assays 1-3, 1 µM", "result": "60.9% and 61.3% and 63.7%"}, {"measurement": "% cytotoxicity", "setting": "[3]; 1.0 μM, second experiment, single assays 1-3, 1 µM", "result": "11.1% and 14.6% and 18.1%"}, {"measurement": "% cytotoxicity", "setting": "[3]; 10 μM, first experiment, single assays 1-3, 10 µM", "result": "65.7% and 66.5% and 67.1%"}, {"measurement": "% cytotoxicity", "setting": "[3]; 10 μM, second experiment, single assays 1-3, 10 µM", "result": "29.1% and 32.7% and 37.3%"}, {"measurement": "% cytotoxicity", "setting": "[3]; 50 μM, first experiment, single assays 1-3, 50 µM", "result": "75.1% and 74.0%"}, {"measurement": "% cytotoxicity", "setting": "[3]; 50 μM, second experiment, single assays 1-3, 50 µM", "result": "86.7% and 86.4%"}, {"measurement": "Translocation of NFκB into the nucleus", "setting": "[4]", "result": "inhibits translocation of NFκB into the nucleus"}]}
